Measured values published in patent US20130064826A1 (KALOBIOS PHARMACEUTICALS, published 2013).
Values belong to the binder of their own block, whether it stands above or below them.

Assays:
EMR2 = biological target: T1, EMR2 (UniProt Q9UHX3 24-540, limits assumed); test: not described
T1 sequence (looked up): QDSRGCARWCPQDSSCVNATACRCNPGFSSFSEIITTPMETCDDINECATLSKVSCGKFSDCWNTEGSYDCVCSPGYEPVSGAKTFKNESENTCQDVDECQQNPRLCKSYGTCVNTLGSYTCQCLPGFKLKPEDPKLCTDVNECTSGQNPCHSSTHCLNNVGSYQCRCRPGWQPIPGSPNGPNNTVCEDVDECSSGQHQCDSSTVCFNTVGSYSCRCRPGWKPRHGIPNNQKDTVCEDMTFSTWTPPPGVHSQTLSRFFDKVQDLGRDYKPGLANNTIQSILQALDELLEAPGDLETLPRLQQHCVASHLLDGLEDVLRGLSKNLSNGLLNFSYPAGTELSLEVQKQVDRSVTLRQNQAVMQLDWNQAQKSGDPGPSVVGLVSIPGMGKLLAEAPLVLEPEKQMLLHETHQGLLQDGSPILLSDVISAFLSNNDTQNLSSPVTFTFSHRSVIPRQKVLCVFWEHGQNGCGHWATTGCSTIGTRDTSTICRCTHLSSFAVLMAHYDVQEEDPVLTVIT

CD97 = biological target: T2, CD97 (UniProt P48960 21-552, limits assumed); test: not described
T2 sequence (looked up): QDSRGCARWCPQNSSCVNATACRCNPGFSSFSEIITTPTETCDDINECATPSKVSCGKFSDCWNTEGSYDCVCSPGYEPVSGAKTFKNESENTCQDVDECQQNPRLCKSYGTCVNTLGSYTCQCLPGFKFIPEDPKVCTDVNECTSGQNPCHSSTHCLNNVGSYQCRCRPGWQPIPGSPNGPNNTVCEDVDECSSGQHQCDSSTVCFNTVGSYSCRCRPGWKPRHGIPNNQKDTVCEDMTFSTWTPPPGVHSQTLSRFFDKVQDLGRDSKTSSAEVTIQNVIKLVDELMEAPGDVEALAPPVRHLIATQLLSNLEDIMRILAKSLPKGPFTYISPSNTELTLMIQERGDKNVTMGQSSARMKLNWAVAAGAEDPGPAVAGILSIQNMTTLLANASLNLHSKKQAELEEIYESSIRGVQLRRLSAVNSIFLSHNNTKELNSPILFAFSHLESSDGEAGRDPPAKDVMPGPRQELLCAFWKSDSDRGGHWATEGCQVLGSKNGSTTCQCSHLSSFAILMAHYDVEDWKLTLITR

[1] = biological target: T3, EMR1 on human eosinophils (human, UniProt Q14246 21-886); test: flow cytometry on human eosinophils
T3 construct: whole, on cells
T3 sequence (looked up): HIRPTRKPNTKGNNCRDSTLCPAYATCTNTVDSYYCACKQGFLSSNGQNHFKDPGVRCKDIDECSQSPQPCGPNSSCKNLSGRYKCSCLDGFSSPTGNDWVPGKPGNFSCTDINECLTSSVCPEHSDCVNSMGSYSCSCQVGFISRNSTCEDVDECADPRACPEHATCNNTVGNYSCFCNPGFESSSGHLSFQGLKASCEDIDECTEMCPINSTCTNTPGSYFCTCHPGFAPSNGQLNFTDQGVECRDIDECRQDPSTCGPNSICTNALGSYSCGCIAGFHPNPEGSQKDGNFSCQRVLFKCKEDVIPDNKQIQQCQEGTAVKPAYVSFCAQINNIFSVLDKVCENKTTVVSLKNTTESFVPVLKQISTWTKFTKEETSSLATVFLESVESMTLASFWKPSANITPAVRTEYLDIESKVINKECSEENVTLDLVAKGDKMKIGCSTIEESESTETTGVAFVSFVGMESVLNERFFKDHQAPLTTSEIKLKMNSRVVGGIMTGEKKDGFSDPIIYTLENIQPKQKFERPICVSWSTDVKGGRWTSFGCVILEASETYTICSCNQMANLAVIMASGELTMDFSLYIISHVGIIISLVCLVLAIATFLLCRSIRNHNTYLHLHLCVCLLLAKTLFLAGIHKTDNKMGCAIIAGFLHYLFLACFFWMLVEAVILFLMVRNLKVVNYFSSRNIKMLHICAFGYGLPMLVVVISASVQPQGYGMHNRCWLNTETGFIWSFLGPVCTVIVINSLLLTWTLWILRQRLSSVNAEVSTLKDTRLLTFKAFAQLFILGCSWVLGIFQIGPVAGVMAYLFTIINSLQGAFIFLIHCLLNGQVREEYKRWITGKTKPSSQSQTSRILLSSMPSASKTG
Protocol: Splenic B cells from mice immunized with purified human EMR1-Fc fusion protein were fused with SP2/0-Ag14 cells to generate hybridoma cell lines. Supernatants containing antibody from monoclonal lines were tested for binding to recombinant human EMR1 by ELISA. Antibodies that bound EMR1 were tested for binding to human eosinophils by flow cytometry. Polymorphonuclear-cell rich fractions from buffy coat blood were obtained by Ficoll gradient centrifugation and residual red blood cells were lysed with ammonium chloride (ACK lysis buffer). Eosinophils were isolated by negative selection using a MACS eosinophil isolation kit (Miltenyi) and incubated with 10 μg/ml rat IgG and 2% BSA to block nonspecific IgG binding before addition of anti-EMR1 antibody or isotype control antibody. Anti-mouse FITC antibody was used for detection of bound antibodies on a FACSCalibur flow cytometer.

Peptide 1 = biological target: T4, Peptide 1; test: biolayer interferometry (ForteBio Octet)
T4 construct: also called 27 mer; EMR1 ELD-6 271-297
T4 peptide: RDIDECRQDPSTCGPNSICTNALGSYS

Peptide 7 = biological target: T5, Peptide 7; test: biolayer interferometry (ForteBio Octet)
T5 construct: also called 18 mer; EMR1 ELD-6 271-288
T5 peptide: RDIDECRQDPSTCGPNSI

Peptide 4 = biological target: T6, Peptide 4; test: biolayer interferometry (ForteBio Octet)
T6 construct: also called 20 mer; EMR1 ELD-6 271-290
T6 peptide: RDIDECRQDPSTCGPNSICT

binding result (EMR2): no binding
binding result (CD97): no binding
binding result [1]: binds
B1: monoclonal antibody 19-1E7 (antibody, V domains shown)
VH: QVQLKESGPGLVAPSQSLSITCTVSGFSLTNFGIHWVRQPPGKGLEWLGVIWSGGGTNYNSALMSRLSISKDNSKSQVFLKMNSLQTDDTAIYYCVSIYYRGFDSWGQGTTLTVSS
VL: DVFMTQAPLSLPVSLGDQASISCRSSQSIVHSNGNTYLEWYLQKPGQSPKLLIYRVSNRFSGVPDRFSGSGSGTDFTLKISRVEAEDLGVYYCFQGSHVPLTFGAGTRLELK
notes: Murine hybridoma antibody raised against human EMR1-Fc; Hybridoma supernatant was used in the screening

binding result (Peptide 1): binds
binding result (Peptide 7): binds
binding result (Peptide 4): binds
B2: chimeric 19-1E7 IgG1k antibody (c1E7) (antibody, V domains shown)
VH: B1 VH
VL: B1 VL
notes: 19-1E7 variable regions combined with human gamma-1 Fc and kappa constant regions (IgG1 kappa); Made in fucosylated (CHOK1 SV) and non-fucosylated (MS704-PF) forms; also called chimeric 1E7
